# From article PMC4428629, “The Structure of an NDR/LATS Kinase–Mob Complex Reveals a Novel Kinase–Coactivator System and Substrate Docking Mechanism” (PLoS Biology, 2015)
# No end group written: not given here. carboxyfluorescein = carboxyfluorescein label
# T1: Cbk1^251–756–Mob2 complex (S. cerevisiae, UniProt P53894 251-756; P43563 1-287)
# T1 chain 1: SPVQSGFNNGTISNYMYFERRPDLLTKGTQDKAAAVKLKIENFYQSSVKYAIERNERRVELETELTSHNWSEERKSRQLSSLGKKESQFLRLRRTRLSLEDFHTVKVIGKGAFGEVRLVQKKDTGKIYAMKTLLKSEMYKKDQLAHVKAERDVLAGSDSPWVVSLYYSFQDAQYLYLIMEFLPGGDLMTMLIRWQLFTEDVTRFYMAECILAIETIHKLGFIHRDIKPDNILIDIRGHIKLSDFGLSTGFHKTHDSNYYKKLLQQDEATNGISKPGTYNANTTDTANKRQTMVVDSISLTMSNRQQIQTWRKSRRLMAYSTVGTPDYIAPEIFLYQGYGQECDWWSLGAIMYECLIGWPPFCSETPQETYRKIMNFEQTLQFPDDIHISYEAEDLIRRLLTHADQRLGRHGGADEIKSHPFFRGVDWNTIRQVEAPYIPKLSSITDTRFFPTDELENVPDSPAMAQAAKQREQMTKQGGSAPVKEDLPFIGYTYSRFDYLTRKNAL
# T1 chain 2: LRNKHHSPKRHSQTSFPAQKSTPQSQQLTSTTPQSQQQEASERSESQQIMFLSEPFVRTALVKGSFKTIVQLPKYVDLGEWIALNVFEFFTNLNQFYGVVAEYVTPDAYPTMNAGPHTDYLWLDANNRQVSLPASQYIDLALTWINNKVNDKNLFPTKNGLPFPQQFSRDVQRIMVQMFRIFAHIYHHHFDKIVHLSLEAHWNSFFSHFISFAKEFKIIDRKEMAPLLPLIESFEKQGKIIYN
# Experiments:
# Cbk1–Mob2 = experiment: In vitro pulldown of Cbk1–Mob2; format: binding, Saccharomyces cerevisiae; details: in vitro binding (Figs 4B, S5A, S5E)
# Procedure: Cbk1 substrates containing the docking motifs or substrate sites were bacterially expressed as MBP or GST fusions. For pulldown assays, MBP-fusion lysates were incubated with amylose resin (New England Biolabs) on ice for 15 min, followed by washing with PBS (137 mM NaCl, 2.7 mM KCl, 4.3 mM Na2HPO4, 1.4 mM KH2PO4 [pH 7.3]). GST fusions were purified on glutathione Sepharose beads followed by dialysis into Cbk1 buffer.
# MBP fusions were incubated on bead with 1 μM purified Cbk1 on ice for 15 min. Samples were washed 3× with PBS (transferred to fresh tube on last wash), resuspended in SDS-PAGE buffer, and separated by SDS-PAGE. Samples were directly visualized with GelCode Blue (Pierce) or transferred to PVDF membrane for immunoblotting. Cbk1 was detected using His or pS570 primary antibodies. For experiments detected using α-pS570, antibody signal with pure protein was analyzed to control for lot-dependent variations in expression as well as variations between Cbk1 mutants (no variations detected).
# [1] = tested on: budding yeast cell separation (RAM network output); experiment: Cell separation assay (cells per group); format: cell-based, Saccharomyces cerevisiae; details: cbk1-as2 strain
# Procedure: For cell separation assays, ckb1Δ, ace2ΔCBK1, or ace2Δcbk1-as2 cells were transformed with empty, WT, or mutant vector under control of the ADH1 promoter. Cells were grown to log-phase, briefly sonicated, and mounted on slides to count cell group size. Histograms represent mean ± standard deviation of three independent cultures, with >100 groups counted for each. For quantification of transcriptional output, RNA was isolated from log-phase cultures and analyzed by real-time PCR. Bar graphs represent mean ± standard deviation of three independent cultures. For growth assays, WT CBK1 or cbk1-as2 strains were transformed with vectors containing Ssd1 (WT and mutants) expressed from a galactose-inducible promoter. Stationary phase cells grown in glucose were diluted to OD600 = 0.2. Five-fold serial dilutions (5^−2, 5^−3, 5^−4, 5^−5) were plated in the presence of glucose or galactose, then incubated for 3 d at 24°C.
# (§1) Supplementary file pbio.1002146.s001.xlsx: S1 Data Measurements of the distances between the centers of mass of indicated Cbk1 and Mob2 regions over the course of the molecular dynamics simulations described in Figs 3 and S4. This file also contains data quantifying the effectiveness of cell separation in different genetic backgrounds. In these experiments we counted the number of cells present in clumps of specific sizes in random microscope fields, and then binned these groups into clump size ranges: 1–4 cells, 5–10 cells, 11–20 cells, and ≥21 cells per clump. We quantified this for the indicated allele combinations, scoring three independent isolates of each allele combination. The number of cell bodies present in clumps of different sizes is a function of the efficiency of cell separation. (XLSX) Click here for additional data file.
# as §1, with “pbio.1002146.s004.xlsx: S4” for “pbio.1002146.s001.xlsx: S1”, “Data” for “Measurements of the distances between the centers of mass of indicated Cbk1 and Mob2 regions over the course of the molecular dynamics simulations described in Figs 3 and S4. This file also contains data”, “1–2 cells, 3–4” for “1–4”
# [2] = tested on: budding yeast cell separation (RAM network output); experiment: Cell separation assay (cells per group); format: cell-based, Saccharomyces cerevisiae; details: cbk1-as2 strain; remark: listed apart in the source
# Cbk1(F699A)–Mob2 complex = Cbk1(F699A)–Mob2 complex (S. cerevisiae, UniProt P53894 251-756; P43563 1-287, F699A); experiment: FP
# [3] = target: T1, Cbk1^251–756–Mob2 complex; experiment: FP
# Cbk1(W444A)–Mob2 complex = Cbk1(W444A)–Mob2 complex (S. cerevisiae, UniProt P53894 251-756; P43563 1-287, W444A); experiment: FP
# Sequence of Cbk1(W444A)–Mob2 complex (P53894 251-756 W444A, chain 1 of 2, one chain of several): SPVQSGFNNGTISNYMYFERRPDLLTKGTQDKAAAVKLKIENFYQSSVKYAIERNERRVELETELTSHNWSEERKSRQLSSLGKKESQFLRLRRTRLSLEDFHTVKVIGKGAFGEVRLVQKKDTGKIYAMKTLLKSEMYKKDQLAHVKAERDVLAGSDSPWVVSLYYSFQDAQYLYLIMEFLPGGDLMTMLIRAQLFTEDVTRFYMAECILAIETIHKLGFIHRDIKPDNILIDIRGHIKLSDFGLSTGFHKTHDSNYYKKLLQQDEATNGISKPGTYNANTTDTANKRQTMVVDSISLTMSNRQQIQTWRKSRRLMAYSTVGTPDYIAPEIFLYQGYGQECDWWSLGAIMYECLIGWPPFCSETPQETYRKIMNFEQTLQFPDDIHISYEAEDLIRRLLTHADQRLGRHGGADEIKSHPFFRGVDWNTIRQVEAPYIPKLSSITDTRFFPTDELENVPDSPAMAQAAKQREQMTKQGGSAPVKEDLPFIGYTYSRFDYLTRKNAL
molecule,measurement,setting,value
"15-amino-acid peptide from Ace2: 15-amino-acid peptide from Ace2 with the sequence YQFP at its C-terminal end (IIVTTNSANGGYQFP; also: MBP fusion, end not given here)",association with Cbk1–Mob2,Cbk1–Mob2,associates with the Cbk1–Mob2 complex
"Ace2 WT (protein, UniProt P21192 1-770, looked up) Metallothionein expression …: MDNVVDPWYINPSGFAKDTQDEEYVQHHDNVNPTIPPPDNYILNNENDDGLDNLLGMDYYNIDDLLTQELRDLDIPLVPSPKTGDGSSDKKNIDRTWNLGDENNKVSHYSKKSMSSHKRGLSGTAIFGFLGHNKTLSISSLQQSILNMSKDPQPMELINELGNHNTVKNNNDDFDHIRENDGENSYLSQVLLKQQEELRIALEKQKEVNEKLEKQLRDNQIQQEKLRKVLEEQEEVAQKLVSGATNSNSKPGSPVILKTPAMQNGRMKDNAIIVTTNSANGGYQFPPPTLISPRMSNTSINGSPSRKYHRQRYPNKSPESNGLNLFSSNSGYLRDSELLSFSPQNYNLNLDGLTYNDHNNTSDKNNNDKKNSTGDNIFRLFEKTSPGGLSISPRINGNSLRSPFLVGTDKSRDDRYAAGTFTPRTQLSPIHKKRESVVSTVSTISQLQDDTEPIHMRNTQNPTLRNANALASSSVLPPIPGSSNNTPIKNSLPQKHVFQHTPVKAPPKNGSNLAPLLNAPDLTDHQLEIKTPIRNNSHCEVESYPQVPPVTHDIHKSPTLHSTSPLPDEIIPRTTPMKITKKPTTLPPGTIDQYVKELPDKLFECLYPNCNKVFKRRYNIRSHIQTHLQDRPYSCDFPGCTKAFVRNHDLIRHKISHNAKKYICPCGKRFNREDALMVHRSRMICTGGKKLEHSINKKLTSPKKSLLDSPHDTSPVKETIARDKDGSVLMKMEEQLRDDMRKHGLLDPPPSTAAHEQNSNRTLSNETDAL","Cells per group, bin 2 (1-2), %",[1]; Isolate 1,76.6187%
same,"Cells per group, bin 10 (5-10), %",[1]; Isolate 1,5.7554%
same,"Cells per group, bin 20 (11-20), %",[1]; Isolate 1,0.7194%
same,"Cells per group, bin More (20+), %",[1]; Isolate 1,0%
same,"Cells per group, bin 10 (5-10), Frequency","[1]; Isolate 1, count",16
same,"Cells per group, bin 20 (11-20), Frequency","[1]; Isolate 1, count",2
same,"Cells per group, bin More (20+), Frequency","[1]; Isolate 1, count",0
same,"Cells per group, bin 2 (1-2), %",[1]; Isolate 2,92.7273%
same,"Cells per group, bin 4 (3-4), %",[1]; Isolate 2,6.545%
same,"Cells per group, bin 10 (5-10), %",[1]; Isolate 2,0.7273%
same,"Cells per group, bin 20 (11-20), %",[1]; Isolate 2,0%
same,"Cells per group, bin More (20+), %",[1]; Isolate 2,0%
same,"Cells per group, bin 2 (1-2), Frequency","[1]; Isolate 2, count",255
same,"Cells per group, bin 10 (5-10), Frequency","[1]; Isolate 2, count",2
same,"Cells per group, bin 20 (11-20), Frequency","[1]; Isolate 2, count",0
same,"Cells per group, bin More (20+), Frequency","[1]; Isolate 2, count",0
same,"Cells per group, bin 4 (3-4), %",[1]; Isolate 3,1.579%
same,"Cells per group, bin 10 (5-10), %",[1]; Isolate 3,0.5263%
same,"Cells per group, bin 20 (11-20), %",[1]; Isolate 3,0.5263%
same,"Cells per group, bin More (20+), %",[1]; Isolate 3,0%
same,"Cells per group, bin 2 (1-2), Frequency","[1]; Isolate 3, count",185
same,"Cells per group, bin 4 (3-4), Frequency","[1]; Isolate 3, count",3
same,"Cells per group, bin 10 (5-10), Frequency","[1]; Isolate 3, count",1
same,"Cells per group, bin 20 (11-20), Frequency","[1]; Isolate 3, count",1
same,"Cells per group, bin More (20+), Frequency","[1]; Isolate 3, count",0
same,"Cells per group, 1-2, Mean",[1]; mean of 3 isolates,88.9048%
same,"Cells per group, 3-4, Mean",[1]; mean of 3 isolates,8.344%
same,"Cells per group, 5-10, Mean",[1]; mean of 3 isolates,2.336%
same,"Cells per group, 11-20, Mean",[1]; mean of 3 isolates,0.4152%
same,"Cells per group, 20+, Mean",[1]; mean of 3 isolates,0%
same,"Cells per group, bin 4 (3-4), %",[2]; Isolate 1,16.9065%
same,"Cells per group, bin 2 (1-2), Frequency","[2]; Isolate 1, count",213
same,"Cells per group, bin 4 (3-4), Frequency","[2]; Isolate 1, count",47
same,"Cells per group, bin 4 (3-4), Frequency","[2]; Isolate 2, count",18
same,"Cells per group, bin 2 (1-2), %",[2]; Isolate 3,97.3684%
"carboxyfluorescein-GSGSIIVTTNSANGGYQFP [pepAce2, carboxyfluorescein-labelled]",Kd,Cbk1(F699A)–Mob2 complex,5 µM
same,Kd,[3],5 µM
same,Kd,Cbk1(W444A)–Mob2 complex,19 µM
